# Results published in publication PMC4191421.
# Several values for one entry are separate records, joined by “and”; a condition that tells them apart may be missing. Equal values may be shown once.
# What was measured:
# [1] = molecular target: BLM RecQ-core (core-BLM) (human) (UniProt P54132); assay: smFRET; conditions: smFRET: 150 mM K+ (or 50 mM K+, 50/150 mM Na+), 5 mM Mg2+, pH 7.5, EMSA: 50 mM K+, 50 mM Tris-HCl pH 7.5, 1 mM DTT, 22 C
# [2] = molecular target: BLM RecQ-core (core-BLM) (human) (UniProt P54132); assay: smFRET; conditions: strand 2 is RNA, smFRET: 150 mM K+ (or 50 mM K+, 50/150 mM Na+), 5 mM Mg2+, pH 7.5, EMSA: 50 mM K+, 50 mM Tris-HCl pH 7.5, 1 mM DTT, 22 C
# [3] = molecular target: BLM RecQ-core (core-BLM) (human) (UniProt P54132); assay: smFRET (GQ unfolding); conditions: smFRET: 150 mM K+ (or 50 mM K+, 50/150 mM Na+), 5 mM Mg2+, pH 7.5, EMSA: 50 mM K+, 50 mM Tris-HCl pH 7.5, 1 mM DTT, 22 C; for binding signal (% unfolded at 25 nM): 50 mM Na+; for binding signal: 150 mM K+, saturating BLM
# [4] = molecular target: WRN (human) (UniProt Q14191); assay: smFRET (GQ unfolding); conditions: 50 mM Na+, strand 2 is RNA, smFRET: 150 mM K+ (or 50 mM K+, 50/150 mM Na+), 5 mM Mg2+, pH 7.5, EMSA: 50 mM K+, 50 mM Tris-HCl pH 7.5, 1 mM DTT, 22 C
# [5] = molecular target: BLM RecQ-core (core-BLM) (human) (UniProt P54132); assay: smFRET (GQ unfolding titration, Langmuir); conditions: strand 2 is RNA, smFRET: 150 mM K+ (or 50 mM K+, 50/150 mM Na+), 5 mM Mg2+, pH 7.5, EMSA: 50 mM K+, 50 mM Tris-HCl pH 7.5, 1 mM DTT, 22 C
# [6] = nt-free, 150 mM Na+, strand 2 is RNA
# BLM RecQ-core (core-BLM) (human), sequence (P54132 642-1290): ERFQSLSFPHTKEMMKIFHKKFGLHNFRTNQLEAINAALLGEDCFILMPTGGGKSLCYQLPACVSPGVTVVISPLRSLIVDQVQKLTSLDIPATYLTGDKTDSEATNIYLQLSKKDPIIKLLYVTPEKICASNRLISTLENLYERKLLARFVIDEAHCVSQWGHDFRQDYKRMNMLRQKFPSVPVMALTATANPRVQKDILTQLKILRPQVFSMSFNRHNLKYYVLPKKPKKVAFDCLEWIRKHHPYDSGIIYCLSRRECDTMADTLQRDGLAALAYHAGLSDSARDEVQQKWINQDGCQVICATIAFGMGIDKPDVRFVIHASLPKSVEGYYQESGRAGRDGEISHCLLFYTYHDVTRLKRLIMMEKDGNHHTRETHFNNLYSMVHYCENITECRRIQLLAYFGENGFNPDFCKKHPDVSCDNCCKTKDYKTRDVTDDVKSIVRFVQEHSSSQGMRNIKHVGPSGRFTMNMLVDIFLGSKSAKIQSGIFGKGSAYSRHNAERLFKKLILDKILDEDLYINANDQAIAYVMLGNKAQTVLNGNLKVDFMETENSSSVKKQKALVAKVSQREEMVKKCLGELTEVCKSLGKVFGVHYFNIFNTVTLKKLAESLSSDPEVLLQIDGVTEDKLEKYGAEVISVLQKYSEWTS
# WRN (human), sequence (Q14191 whole entry): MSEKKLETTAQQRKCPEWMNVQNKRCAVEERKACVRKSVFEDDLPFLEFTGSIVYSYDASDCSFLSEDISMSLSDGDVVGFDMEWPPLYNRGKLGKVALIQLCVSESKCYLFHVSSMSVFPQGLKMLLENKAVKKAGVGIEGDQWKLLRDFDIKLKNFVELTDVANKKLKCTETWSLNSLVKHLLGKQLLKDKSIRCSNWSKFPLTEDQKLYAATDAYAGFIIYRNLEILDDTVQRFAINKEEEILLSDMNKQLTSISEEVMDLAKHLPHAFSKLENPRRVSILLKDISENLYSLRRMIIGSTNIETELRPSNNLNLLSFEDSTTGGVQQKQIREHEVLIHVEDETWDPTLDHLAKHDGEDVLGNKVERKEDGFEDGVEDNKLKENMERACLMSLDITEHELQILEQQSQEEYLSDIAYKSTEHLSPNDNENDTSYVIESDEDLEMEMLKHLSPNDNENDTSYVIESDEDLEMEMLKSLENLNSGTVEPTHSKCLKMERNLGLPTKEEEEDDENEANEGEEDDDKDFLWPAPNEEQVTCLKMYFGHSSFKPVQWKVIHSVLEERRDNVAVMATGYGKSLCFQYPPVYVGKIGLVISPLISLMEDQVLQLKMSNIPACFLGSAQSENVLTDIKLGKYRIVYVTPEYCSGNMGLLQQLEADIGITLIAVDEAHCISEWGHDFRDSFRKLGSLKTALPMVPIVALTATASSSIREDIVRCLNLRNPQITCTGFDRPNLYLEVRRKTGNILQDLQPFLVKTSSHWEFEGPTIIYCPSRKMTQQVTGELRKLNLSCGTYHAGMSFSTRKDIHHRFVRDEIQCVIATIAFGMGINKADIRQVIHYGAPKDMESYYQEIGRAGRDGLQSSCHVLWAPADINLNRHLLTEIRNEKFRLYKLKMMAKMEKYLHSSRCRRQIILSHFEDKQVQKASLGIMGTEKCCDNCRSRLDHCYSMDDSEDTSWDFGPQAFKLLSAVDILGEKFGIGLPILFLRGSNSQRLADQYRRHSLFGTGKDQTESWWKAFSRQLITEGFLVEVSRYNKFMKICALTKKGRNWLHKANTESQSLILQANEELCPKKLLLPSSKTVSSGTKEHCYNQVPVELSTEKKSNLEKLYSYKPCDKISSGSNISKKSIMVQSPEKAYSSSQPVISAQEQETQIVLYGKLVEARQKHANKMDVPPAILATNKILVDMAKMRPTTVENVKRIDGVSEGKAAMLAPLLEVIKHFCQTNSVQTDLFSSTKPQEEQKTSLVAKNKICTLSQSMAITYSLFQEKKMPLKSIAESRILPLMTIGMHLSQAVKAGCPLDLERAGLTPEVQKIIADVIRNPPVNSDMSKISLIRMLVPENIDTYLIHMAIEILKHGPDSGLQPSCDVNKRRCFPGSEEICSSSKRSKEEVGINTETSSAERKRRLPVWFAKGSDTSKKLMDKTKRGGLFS
sequence,measurement,setting,value
TTTTTTTTTTTTTTTTGGCGACGGCAGCGAGGC / GCCTCGCTGCCGTCGCCA [pd-polyT15-5'],binding signal (% bound at 1 uM),"[1]; 1 mM ATPgS, 50 mM K+",53
TGGCGACGGCAGCGAGGCTTTTTTTTTTTTTTT / GCCUCGCUGCCGUCGCCA [pd-polyT15],binding signal (% bound at 1 uM),[2],36
same,binding signal (% bound at 1 uM),"[1]; 1 mM ADP, 150 mM K+, strand 2 is RNA",12
same,binding signal (fold higher Keq in 150 vs 50 mM Na+),"[1]; nt-free, strand 2 is RNA",4.7
same,binding signal (% bound at 1 uM),[1]; strand 2 is RNA,21
TTTTTTTTTTTTGGGTTAGGGTTAGGGTTAGGGTTTGGCGACGGCAGCGAGGC / GCCTCGCTGCCGTCGCCA [pd-hGQ12T-5'],binding signal (% unfolded at 1 uM),"[3]; ATPgS, 50 mM K+",30
same,binding signal (% unfolded at 1 uM),"[3]; nt-free, 50 mM K+",21
TGGCGACGGCAGCGAGGCTTGGGTGGGTGGGTGGGTTTTTTTTTTTT / GCCUCGCUGCCGUCGCCA [pd-3Ly1Lp12T],binding signal (% unfolded at 1 uM),[3]; strand 2 is RNA,46 and 58
TGGCGACGGCAGCGAGGCTAGGGTTAGGGTTAGGGTTAGGGTTTTTTTTTTTT / GCCUCGCUGCCGUCGCCA [pd-hGQ12T],binding signal (% unfolded at 25 nM),"[3]; ATPgS, strand 2 is RNA",25
same,binding signal (% unfolded at 25 nM),"[3]; nt-free, strand 2 is RNA",18
same,binding signal (% unfolded at 300 nM),[3]; [6],17
same,binding signal (% unfolded at 1000 nM),[3]; [6],38
same,binding signal (% unfolded at 25 nM),[4]; ATPgS,25
same,binding signal (% unfolded at 25 nM),[4]; nt-free,8
same,K half,"[5]; 1 mM ADP, 150 mM K+, alpha 32%",55 nM
same,K half,"[5]; 1 mM ATPgS, 150 mM K+, alpha 53%",108 nM
same,K half,"[5]; nt-free, 50 mM K+, alpha 55%",28 nM
same,K half,"[5]; nt-free, 150 mM K+, alpha 49%",305 nM
TGGCGACGGCAGCGAGGCTAGGGTTAGGGTTAGGGTTAGGGTTTTTTTTTTTTTTT / GCCUCGCUGCCGUCGCCA [pd-hGQ15T],binding signal,"[3]; ADP, strand 2 is RNA",22 % unfolded
same,binding signal,"[3]; ATPgS, strand 2 is RNA",57 % unfolded
same,binding signal,"[3]; nt-free, strand 2 is RNA",48 % unfolded
